doi:10.1101/2019.12.11.872267 (bioRxiv, 2019)

Biological target: the molecule itself
Assay: negative stain electron microscopy

B1: Drosophila P5CS, purified from E. coli (enzyme, UniProt Q9VNW6 1-776, looked up)
chain: MLQNSFKLAQSLRNGFYRNAWRAFSSHGPRQPLVSPERRLEKAHPTFTERSQLKYARRLVVKLGSAVITREDNHGLALGRLASIVEQVAECHLEGREVMMVTSGAVAFGKQKLAQELLMSLSMRETLNPKDSKEFDGATLEPRAAAAVGQSGLMSLYDAMFAQYGVKIAQVLVTKPDFYNEETRNNLFCTLSELISLNIVPIINTNDAVSPPMFIRDDEPAGGARRGIPIKDNDSLSAMLAAEVQADLLILMSDVDGIYNKPPWEDGAKLMHTYTSDDSNSIEFGKKSKVGTGGMDSKVKAATWALDRGVSVVICNGMQEKAIKTIIGGRKVGTFFTEATESANAVPVEVMAENARTGSRQMQALTPAQRASAVNTLADLLVSREKFILDANAKDLAEAQKSGLAKPLLSRLSLNPAKLKNLSVGLKQIAEDSHKNVGRVLRRTRLADQLELKQVTVPIGVLLVIFESRPDSLPQVAALAMASANGLLLKGGKEAAHSNKALMELVKEALATVGAEHAVSLVSTREEISDLLSMENHIDLIIPRGSSDLVRSIQQQSLHIPVLGHAEGVCHVYIDRDADLEKALRIARDAKCDYPAACNAMETLLIHEDLMSGAIFGDVCNMLKREGVKIYAGPRLNQQLTFGPPAAKSLKHEYGALECCIEVVPSLDEAINHIHTYGSSHTDVIVTENDAAARQFLGSVDSACVFHNASSRFADGFRFGLGAEVGISTARIHARGPVGVEGLLTTKWILEGQDHAAADFAEGGGRTWLHETLPLD
binding result: binds
